2 molecules from patent US20200308299A1 (NATIONAL UNIVERSITY CORPORATION KOCHI UNIVERSITY, published 2020) can be followed below.

In test [1] the target is T1, human Glypican-1 on the surface of human cancer cell strains (TE8, TE14 and others) (human, UniProt P35052 24-530).
T1 construct: Endogenous GPC1 of the cell strains; also called GPC1; GPC-1
T1 sequence: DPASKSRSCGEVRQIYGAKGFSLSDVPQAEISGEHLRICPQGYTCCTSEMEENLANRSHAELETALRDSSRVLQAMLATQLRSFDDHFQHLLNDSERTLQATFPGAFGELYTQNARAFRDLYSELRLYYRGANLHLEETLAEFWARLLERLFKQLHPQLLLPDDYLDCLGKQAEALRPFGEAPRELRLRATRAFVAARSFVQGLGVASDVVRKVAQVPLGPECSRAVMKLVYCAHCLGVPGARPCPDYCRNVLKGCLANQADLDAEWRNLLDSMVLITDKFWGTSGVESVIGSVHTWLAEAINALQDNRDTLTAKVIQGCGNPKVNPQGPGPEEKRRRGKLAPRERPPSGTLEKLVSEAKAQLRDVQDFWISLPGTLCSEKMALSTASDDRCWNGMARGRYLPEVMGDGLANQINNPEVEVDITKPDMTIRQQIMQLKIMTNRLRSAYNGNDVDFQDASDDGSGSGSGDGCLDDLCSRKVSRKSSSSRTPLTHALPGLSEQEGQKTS
In words: flow cytometry on TE8 cells, biotin-labelled 02b006 and streptavidin-PE. In general terms: A flow cytometer gives signals particle by particle.

In another test the target is T2, human Glypican-1 (human, UniProt P35052 24-530, limits assumed).
T2 construct: also called human GPC1
T2 sequence: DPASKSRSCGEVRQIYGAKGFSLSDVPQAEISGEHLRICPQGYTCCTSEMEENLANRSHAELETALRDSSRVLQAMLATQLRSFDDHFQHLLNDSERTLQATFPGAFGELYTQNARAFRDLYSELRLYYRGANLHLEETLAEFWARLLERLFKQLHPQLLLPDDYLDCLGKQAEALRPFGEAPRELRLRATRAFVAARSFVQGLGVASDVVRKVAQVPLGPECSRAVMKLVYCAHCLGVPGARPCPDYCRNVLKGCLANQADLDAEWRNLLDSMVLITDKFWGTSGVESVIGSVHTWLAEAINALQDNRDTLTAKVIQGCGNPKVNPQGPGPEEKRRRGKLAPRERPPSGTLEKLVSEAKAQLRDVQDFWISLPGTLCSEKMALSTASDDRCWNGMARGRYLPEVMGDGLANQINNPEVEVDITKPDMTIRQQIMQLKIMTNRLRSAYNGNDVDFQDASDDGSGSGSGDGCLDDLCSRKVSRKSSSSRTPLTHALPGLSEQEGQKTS
In words: phage scFv panning, ELISA on immobilised human GPC1, cell-ELISA and flow cytometry on human GPC1 transformants and TE14 (Example 1). (ELISA stands for enzyme-linked immunosorbent assay.)

Test [2] has as its target T3, recombinant human Glypican-1 protein (R&D Systems, CF, 4519-GP-050) (human, UniProt P35052 24-530).
T3 construct: Bought protein; also called recombinant human GPC1
T3 sequence: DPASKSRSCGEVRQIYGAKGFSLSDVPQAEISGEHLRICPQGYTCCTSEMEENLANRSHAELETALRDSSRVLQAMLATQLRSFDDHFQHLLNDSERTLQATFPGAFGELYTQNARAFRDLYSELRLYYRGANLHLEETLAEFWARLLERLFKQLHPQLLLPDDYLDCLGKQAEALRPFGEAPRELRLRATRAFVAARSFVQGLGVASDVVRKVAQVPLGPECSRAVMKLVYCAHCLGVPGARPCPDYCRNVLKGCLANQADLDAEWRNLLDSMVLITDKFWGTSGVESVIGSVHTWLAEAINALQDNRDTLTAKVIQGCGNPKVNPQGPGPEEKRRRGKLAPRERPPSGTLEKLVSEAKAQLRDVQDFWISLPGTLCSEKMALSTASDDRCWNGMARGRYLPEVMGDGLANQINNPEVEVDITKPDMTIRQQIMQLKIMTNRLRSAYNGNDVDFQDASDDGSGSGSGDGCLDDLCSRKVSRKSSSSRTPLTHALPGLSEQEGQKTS
Briefly: ELISA on plate-coated recombinant human GPC1.

The target of test [3] is T4, mouse Glypican-1 expressed on LLC-mGPC1-16 cells (mouse, UniProt Q9QZF2 24-529).
T4 sequence: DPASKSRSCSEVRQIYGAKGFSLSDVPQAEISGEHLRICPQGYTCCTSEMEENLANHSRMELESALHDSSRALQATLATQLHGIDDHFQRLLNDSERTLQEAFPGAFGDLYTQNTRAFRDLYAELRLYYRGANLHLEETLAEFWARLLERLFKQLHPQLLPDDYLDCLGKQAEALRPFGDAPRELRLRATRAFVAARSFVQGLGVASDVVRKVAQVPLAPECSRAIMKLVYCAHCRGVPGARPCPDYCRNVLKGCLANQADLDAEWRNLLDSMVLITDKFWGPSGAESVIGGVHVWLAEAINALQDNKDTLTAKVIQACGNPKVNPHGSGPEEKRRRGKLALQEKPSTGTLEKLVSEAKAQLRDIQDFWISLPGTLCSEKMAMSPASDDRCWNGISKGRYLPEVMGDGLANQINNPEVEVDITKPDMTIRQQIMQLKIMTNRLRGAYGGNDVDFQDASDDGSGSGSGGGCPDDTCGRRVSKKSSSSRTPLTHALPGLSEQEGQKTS
Briefly: cell-based or functional assay.

B1: anti-Glypican-1 antibody clone K090-02b006 (antibody, mouse IgG2a, kappa, V domains shown)
VH: EVQLVESGGGLVKPGGSRKLSCAASGFTFSDYGMHWVRQAPEKGLEWVAYISSGSSTIYYADTVKGRFTISRDNAKNTLFLQMTSLRSEDTAIYYCVRHSYYNYDIGGYYAMDYWGQGTSVTVSS
VL: DIVLTQSPSSLSASLGERVSLTCRASQEISGYLSWLQQKPDGTIKRLIYAASTLDSGVPKRFSGSRSGSDYSLTISSLESEDFADYYCLQYASYPLTFGAGTKLEIKR
notes: also called biotin-labeled 02b006; biotin-labeled anti-GPC1 antibody 02b006
Turning to B1, the binding result (in test [1]; with human Glypican-1) was “binds” throughout.

B2: GPC1-CL-MMAF (clone 01a033 conjugated to MC-vc-PAB-MMAF) (antibody, V domains shown)
VH: QVQLKQSGPELVKPGASVKISCKASGYSFTGYYMHWVKQSPEKSLEWIGEINPSTGDTTYNQKFKAKATLTVDKSSSTAYMQLKSLTSEDSAVYYCAREKRDDGVFAYWGQGTLVTVSS
VL: DIVMSQSPKSMSMSVGERVALSCKASENVGTYVSWYQQKPEQSPKLLIYGASNRYTGVPDRFTGSGSATDFTLTISSVQAEDLADYYCGQSYSYPLTFGAGTKLELKR
modifications: MC-vc-PAB-MMAF bound by maleimide to reduced inter-strand cysteines; DAR 4.1 (printed as 3.8 in paragraph 359)
notes: Antibody-drug conjugate of mouse IgG2a clone 01a033; also called 01a033 ADC; GPC1 ADC
For the molecule B2, in test [2], the binding result was “binds”. In addition, the “effect of suppressing growth (CellTiter-Glo, 72 hours), LLC-mGPC1-16 against LLC-control-7” value in test [3] is 17 fold.
